Measurements published in patent US20250066499A1 (SUNSHINE GUOJIAN PHARMACEUTICAL SHANGHAI, published 2025).

Legend:
CD73-ND-K182A = molecular target: T1, CD73-ND-K182A (human, UniProt P21589 27-317); experiment: ELISA, biotinylated antigen on streptavidin plate
T1 construct: Alanine mutant of CD73-ND
T1 sequence: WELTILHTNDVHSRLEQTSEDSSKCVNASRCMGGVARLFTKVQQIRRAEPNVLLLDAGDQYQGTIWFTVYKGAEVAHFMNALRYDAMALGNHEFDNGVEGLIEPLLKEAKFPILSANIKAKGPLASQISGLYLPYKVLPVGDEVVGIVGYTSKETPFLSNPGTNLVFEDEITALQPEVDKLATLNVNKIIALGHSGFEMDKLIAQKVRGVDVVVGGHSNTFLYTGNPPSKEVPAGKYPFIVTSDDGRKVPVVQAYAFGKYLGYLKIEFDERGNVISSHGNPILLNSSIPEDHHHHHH
Procedure: (§1) The ELISA plates were coated with SA protein diluted to 1.5 μg/mL in coating buffer (50 mM carbonate coating buffer, pH 9.6) and incubated overnight at 4° C. The supernatant was discarded, and the plates were washed three times with PBST. Then, 5% skimmed milk powder prepared with PBS was added for blocking and the plates were incubated for 2 h at 37° C. After washing the plates once with PBST, CD73-biotin protein (prepared by biotinylating CD73-His protein according to the EZ-Link NHS-Biotin Reagent instructions) was diluted to 0.5 μg/mL and added at 100 μL/well for incubation at room temperature for 1 h. The plates were washed three times with PBST, and the prepared murine-derived monoclonal antibodies against human CD73 were serially diluted with 1% BSA buffer prepared with PBST and added to the ELISA plates at 100 μl/well. The plates were incubated at 37° C. for 1 h. After washing the plates three times with PBST, HRP-labeled goat anti-mouse IgG secondary antibody was added and the plates were incubated for 30 min at 37° C. After washing the plates three times with PBST, the residual droplets were patted dry on absorbent paper as much as possible. Then, 100 μl of TMB color developing solution was added to each well, and the plates were incubated in the dark at room temperature for 5 min for color development. Subsequently, 50 μl of 2M H₂SO₄ stop solution was added to each well to terminate the substrate reaction. The OD values were read at 450 nm using a multimode microplate reader to analyze the binding ability of the tested antibodies to the target antigen human CD73-His.
(§2) Referring to the experimental method in Example 3, the affinity of 48A11-HuV33 for various mutant proteins of CD73-ND was determined. The SA protein was diluted to 1 μg/mL for coating the ELISA plates, and the biotinylated CD73 protein (CD73-biotin) was used at a concentration of 0.1 μg/mL.

CD73-ND-L133A = molecular target: T2, CD73-ND-L133A (human, UniProt P21589 27-317); experiment: ELISA, biotinylated antigen on streptavidin plate
T2 construct: Alanine mutant of CD73-ND
T2 sequence: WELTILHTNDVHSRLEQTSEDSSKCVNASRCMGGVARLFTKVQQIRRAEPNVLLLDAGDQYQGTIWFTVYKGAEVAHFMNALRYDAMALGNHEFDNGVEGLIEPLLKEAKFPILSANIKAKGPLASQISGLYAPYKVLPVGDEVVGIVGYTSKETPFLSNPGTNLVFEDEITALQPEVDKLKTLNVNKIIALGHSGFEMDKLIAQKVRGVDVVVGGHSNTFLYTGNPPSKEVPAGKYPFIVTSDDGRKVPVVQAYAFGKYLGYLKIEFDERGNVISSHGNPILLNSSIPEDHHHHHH
Procedure: as §1, §2

CD73-ND-P134A = molecular target: T3, CD73-ND-P134A (human, UniProt P21589 27-317); experiment: ELISA, biotinylated antigen on streptavidin plate
T3 construct: Alanine mutant of CD73-ND
T3 sequence: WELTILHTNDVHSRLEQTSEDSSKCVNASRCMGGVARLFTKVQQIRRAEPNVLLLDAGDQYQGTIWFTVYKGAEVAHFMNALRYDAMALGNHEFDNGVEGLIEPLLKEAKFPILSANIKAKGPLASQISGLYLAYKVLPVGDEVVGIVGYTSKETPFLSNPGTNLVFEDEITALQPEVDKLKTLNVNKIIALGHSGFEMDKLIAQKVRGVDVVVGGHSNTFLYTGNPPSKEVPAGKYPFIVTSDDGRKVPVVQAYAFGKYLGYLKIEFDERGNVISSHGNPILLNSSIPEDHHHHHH
Procedure: as §1, §2

human CD73-His protein = molecular target: T4, human CD73-His protein (human, UniProt P21589 27-549); experiment: ELISA as in Example 3, antigen CD73-his, antibody titrated, absorbance 450 nm
T4 construct: Expressed in HEK-293F with a signal peptide that is not specified; In the ELISAs it was biotinylated with EZ-Link NHS-Biotin (CD73-biotin) and captured on streptavidin; in SPR and the enzyme assay it was used as CD73-His; also called CD73-his antigen; CD73-biotin
T4 sequence: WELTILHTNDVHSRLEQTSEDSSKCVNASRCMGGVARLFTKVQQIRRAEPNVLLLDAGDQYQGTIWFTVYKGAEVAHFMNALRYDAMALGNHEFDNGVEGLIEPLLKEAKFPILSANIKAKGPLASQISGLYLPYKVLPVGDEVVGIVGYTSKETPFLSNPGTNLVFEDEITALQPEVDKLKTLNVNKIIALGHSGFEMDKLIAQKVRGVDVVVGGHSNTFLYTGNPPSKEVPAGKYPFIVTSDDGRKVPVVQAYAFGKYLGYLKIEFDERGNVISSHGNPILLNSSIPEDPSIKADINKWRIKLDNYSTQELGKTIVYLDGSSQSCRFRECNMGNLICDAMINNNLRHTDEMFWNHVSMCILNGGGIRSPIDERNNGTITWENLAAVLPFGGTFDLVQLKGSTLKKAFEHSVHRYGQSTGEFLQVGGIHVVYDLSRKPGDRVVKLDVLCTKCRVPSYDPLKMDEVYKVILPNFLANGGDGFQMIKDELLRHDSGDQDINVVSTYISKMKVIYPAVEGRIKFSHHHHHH

CD73-CD-his = molecular target: T5, CD73-CD-his (human, UniProt P21589 337-549); experiment: ELISA as in Example 3, antigen CD73-CD-his, antibody titrated, absorbance 450 nm
T5 construct: it fits residue S549 of P21589 (27+522)
T5 sequence: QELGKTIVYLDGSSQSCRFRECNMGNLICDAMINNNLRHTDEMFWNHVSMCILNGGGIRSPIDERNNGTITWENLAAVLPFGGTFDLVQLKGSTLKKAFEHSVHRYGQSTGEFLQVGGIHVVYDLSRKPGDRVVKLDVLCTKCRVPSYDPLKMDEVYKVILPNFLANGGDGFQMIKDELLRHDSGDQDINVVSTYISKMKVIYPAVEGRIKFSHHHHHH

B1: 48A11-HuV33 (antibody, human IgG4, V domains shown)
VH: QVQLVQSGAEVKKPGASVKVSCKASGYTFTSYWMHWVRQAPGQGLEWIGEINPSIGRTNYNEKFKSRVTLTRDTSTSTAYMELSSLRSEDTAVYYCARRVYGTMDYWGQGTLVTVSS
VL: DIQMTQSPSSLSASVGDRVTITCKASQDINSYLSWFQQKPGKSPKLLIYRANIWVDGVPSRFSGSGSGQDYTFTISSLQPEDIATYYCLQYDELYTFGQGTKVEIK
notes: Humanized
- EC50 (CD73-ND-K182A): 121 pM
- EC50 (CD73-ND-L133A): 25800 pM
- EC50 (CD73-ND-P134A): 205 pM

B2: 56B10-HuV31 (antibody, human IgG4, V domains shown)
VH: QVQLQQSGAEVKKPGASVKVSCKASGYTFTRYYIYWVRQRPGQGLEWIGWIYPGNFNTKYNEKFKGRATLTADTSASTAYMELSSLTSEDTAVYYCARDVYDYAGFAYWGQGTLVTVSS
VL: DIQLTQSPSFLSASVGDRVTITCKASQGVATAVAWYQQKPGQSPKLLIYWASTRHTGVPDRFSGSGSGTEFTLTISSLQPEDFATYYCQQYSSYPWTFGQGTKVEIK
notes: Humanized
- EC50 (read off the curve) (human CD73-His protein): ~70 pM
- binding result (CD73-CD-his): no binding (tested: 10 nM)
